Measured values: paper doi:10.1101/2022.10.06.510747
Where two headings read alike, the source gives them in different places.

Key:
[1] = target: ΔIBB-TgImpα (T. gondii importin α lacking the IBB domain, amino acids 92-545, C-terminal His-tag) (Toxoplasma gondii); assay: pull-down
[2] = target: PfTGS1-NLS-GFP (bi-partite NLS of P. falciparum trimethyl guanosine synthase 1 fused to GFP) (Plasmodium falciparum); assay: SPR
[3] = target: PfTGS1-NLS-GFP (bi-partite NLS of P. falciparum trimethyl guanosine synthase 1 fused to GFP) (Plasmodium falciparum); assay: SPR; remark: listed apart in the source
[4] = target: SV40 T-ag-NLS-GFP (SV40); assay: AlphaScreen or HTRF

Substance | Kd [3] | other results
PfTGS1-NLS-GFP (bi-partite NLS of P. falciparum trimethyl guanosine synthase 1 fused to GFP) (domain or fragment) | – | relative band intensity (pulled down by ΔIBB-TgImpα over WT-TgImpα) [1]: 4.6
WT-TgImpα (full-length Toxoplasma gondii importin α with C-terminal His-tag) (natural protein) | 3.26 nM | Kd [2]: 830 nM
KRR-TgImpα (KKR/KRR mutant of the third basic cluster) (natural protein) | 1450 nM | –
AAA-TgImpα (KKR/AAA mutant of the third basic cluster) (natural protein) | 280 nM | –
MmHinge-TgImpα (TgImpα chimera containing the hinge motif from MmImpα2) (from UniProt P52293 57-70) | 5.1 nM | –
WT-TgImpα with a C-terminal GST tag (from UniProt A0A125YID0 1-545) (natural protein) | – | Kd [4]: 3.5 nM
pre-dimerized TgImpα/MmImpβ1 (from UniProt P70168 1-876) (complex) | – | Kd [4]: 1.5 nM
ΔIBB-TgImpα (T. gondii importin α lacking the IBB domain, amino acids 92-545, C-terminal His-tag) (domain or fragment) | – | Kd [2]: 240 nM
SKR-TgImpα (KKR/SKR mutant of the third basic cluster) (natural protein) | 410 nM | –
